The experiment addresses protein phosphatase PP1 (endogenous), P36873. Briefly: EGFP trap, immunoblotting, densitometric analysis. As to conditions: chain shown with the change; non-synchronized HEK293T cells; three independent experiments; parent: est. 1.0; read off a plot. (Immunoblotting shows a protein as a band on a membrane.)

Among the data in publication PMC4703885 are ratio to parent values, retold here.

Residue numbers refer to the chain shown, from its start. Names may count otherwise.

protein phosphatase PP1 (endogenous), P36873, sequence (P36873 whole entry): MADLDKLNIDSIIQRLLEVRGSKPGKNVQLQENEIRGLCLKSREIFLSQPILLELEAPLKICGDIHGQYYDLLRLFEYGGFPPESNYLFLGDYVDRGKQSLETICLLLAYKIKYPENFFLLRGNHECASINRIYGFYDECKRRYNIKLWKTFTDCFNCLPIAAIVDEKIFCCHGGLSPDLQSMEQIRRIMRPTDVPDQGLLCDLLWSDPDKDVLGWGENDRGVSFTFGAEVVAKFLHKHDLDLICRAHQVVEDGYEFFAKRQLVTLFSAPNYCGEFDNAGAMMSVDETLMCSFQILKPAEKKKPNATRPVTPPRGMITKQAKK

B1: EGFP-tagged RepoMan-WT, Q69YH5 S400D; T412D; T419D (protein)
chain: MDANSKDKPPETKESAMNNAGNASFILGTGKIVTPQKHAELPPNPCTPDTFKSPLNFSTVTVEQLGITPESFVRNSAGKSSSYLKKCRRRSAVGARGSPETNHLIRFIARQQNIKNARKSPLAQDSPSQGSPALYRNVNTLRERISAFQSAFHSIKENEKMTGCLEFSEAGKESEMTDLTRKEGLSACQQSGFPAVLSSKRRRISYQRDSDENLTDAEGKVIGLQIFNIDTDRACAVETSVDLSEISSKLGSTQSGFLVEESLPLSELTETSNALKVADCVVGKGSSDAVSPDTFTAEVSSDAVPDVRSPATPACRRDLPTPKTFVLRSVLKKPSVKMCLESLQEHCNNLYDDDGTHPSLISNLPNCCKEKEAEDEENFEAPAFLNMRKRKRVTFGEDLDPEVFDESLPANDPLRKGGDPVCKKDFSGLSSLLLEQSPVPEPLPQPDFDDKGENLENIEPLQVSFAVLSSPNKSSISETLSGTDTFSSSNNHEKISSPKVGRITRTSNRRNQLVSVVEESVCNLLNTEVQPCKEKKINRRKSQETKCTKRALPKKSQVLKSCRKKKGKGKKSVQKSLYGERDIASKKPLLSPIPELPEVPEMTPSIPSIRRLGSGYFSSNGKLEEVKTPKNPVKRKDLLRHDPDLHMHQGYDKYDVSEFCSYIKSSSSLGNATSDEDPNTNIMNINENKNIPKAKNKSESENEPKAGTDSPVSCASVTEERVASDSPKPALTLQQGQEFSAGGQNAENLCQFFKISPDLNIKCERKDDFLGAAEGKLQCNRLMPNSQKDCHCLGDVLIENTKESKSQSEDLGRKPMESSSVVSCRDRKDRRRSMCYSDGRSLHLEKNGNHTPSSSVGSSVEISLENSELFKDLSDAIEQTFQRRNSETKVRRSTRLQKDLENEGLVWISLPLPSTSQKAKRRTICTFDSSGFESMSPIKETVSSRQKPQMAPPVSDPENSQGPAAGSSDEPGKRRKSFCISTLANTKATSQFKGYRRRSSLNGKGESSLTALERIEHNGERKQ
For B1, the ratio to parent came out at 0.19.

B2: EGFP-tagged RepoMan-WT, Q69YH5 T412D (protein)
chain: B1 chain with D400S, D419T
For B2, the ratio to parent is 0.43.
